# Results published in a protein production outcome set (Wang et al. 2014).
# Assay: label from the status in PepcDB records
row,Sequence,protein production
1,MKFWRPGITGKLFLAIFATCIVLLISMHWAVRISFERGFIDYIKHGNEQRLQLLSDALGEQYAQHGNWRFLRNNDRFVFQILRSFEHDNSEDKPGPGMPPHGWRTQFWVVDQNNKVLVGPRAPIPPDGTRRPILVNGAEVGAVIASPVERLTRNTDINFDKQQRQTSWLIVALATLLAALATFLLARGLLAPVKRLVDGTHKLAAGDFTTRVTPTSEDELGKLAQDFNQLASTLEKNQQMRRDFMADISHELRTPLAVLRGELEAIQDGVRKFTPETVASLQAEVGTLTKLVDDLHQLSMSDEGALAYQKAPVDLIPLLEVAGGAFRERFASRGLKLQFSLPDSITVFGDRDRLMQLFNNLLENSLRYTDSGGSLQISAGQRDKTVRLTFADSAPGVSDDQLQKLFERFYRTEVPATVPAGSGLGLAICLNIVEAHNGRIIAAHSPFGGVSITVELPLERDLQREV,failed
2,MKFYIIRHAKVNMRWPKKCTSDEFNQACKKYDGADIVAFQGSLELPVSNIYTSELIRTKQTAQQLFPLQSYQIDKRLNEVPLKAAFSSKIKLPLIFWNILGRLQWLFNSSKQEGIKASKERAEKFCDDLIYKGEDAILITHGFFMITLLKELKKRGFIEKDNGFNFDNLQVIEVKKRLLVY,failed
3,MKGDRERQADLSPREGPSVPRPVLLQTEPRSVFPGDTSRPWSPAALPARAPGDRWCGRRRRSPGNASYLDSDISEKSRSASEEEKSHALGACHCAENAFQDSQKSLVPSRGQKMTSGTKAKVPLTALSQKWKRDREQTLEAAYVPVVVDPRGQNPDTSIRFSFYNSQYSNSLNPFYTLQKPTCGYLYQRETDHTRKRFDVPPANLILWRT,failed
4,MKGNALCTGEPVMTIETRGGGSEDIAVLPLDPTGNITRLFIRERCNDSSDPECKTGQWRLGSVDISRENTPASTRYAWRPGNNASEDDFEPLGMSLVPGNTPGEGTLFVIDIARPQSVRIWQLDISGGEITKATLATPADTQTGARLTAANSLQAVRNDDSRSFHLTITRFDEYGLLPFRPTPWPALVRINNGVIQPPPAQDFRNANGIIRPCAGCDLVIASYWERRLRFVSKENGEIGEYASAELPIRPDNLRLDGERILIAGQRRVDLTALNLLVSPHIPSPSGVYAIDTRSLGPDTVPTLLWEGGWKHGHSVATAVALPGNRLAIGQINTPGILIADCSPLEHHHHHH,failed
5,MKGSLIVIVFFCVGCIMGVFNKFQFDTHTVSMYILYALMLQVGISIGSNKNLKAIISHLHPKMLLIPLGTITGTLLFSALASILLSQWSVFDCMAVGSGFAYYSLSSILITQFKEPTIGIQLATELGTIALLTNIFREMMALLGTPLIKKYFGKLAPISAAGVNSMDVLLPSISRYSGKEMIPIAILHGILIDISVPVFVSFFCNL,failed
6,MKHAKDIKVHKFNGPVKNDGKISVLVLGADKASGGKSRSDSIMVVQYDYIHKKMKMMSVMRDIYAEIPGYQNYKINAAYSLGGPELLRKTLNKNLGINPEYYAVIDFTGFEKMIDELEPNGVPMDVEKDMSENIGVSLKKGHHRLNGKELLGYARFRHDEEGDFGRVRRQQQVMQTLKKELVTPSSVIKLPKVAGILRGYINTSMPNSAIFQTGISYGIRGDKNVESLTVPINNSYQNINTNNDGSALEIDKEKNKKAVKEFLNNLEHHHHHH,failed
7,MKHEAIGHDTIAKFLLTSGSTGNPKAVINTQRMICANQVMIREAMAFLKDEPPVIVDWLPWNHTFGGNHNIGLTLFNGGSMYIDDGKPTPAGIASTIRNLREIAPTVYFNVPKGYESLLPVLREDQQLRKLFFSRLHAMFFSGASLAAHVWNGLDEVAVAETGARVPMLTGLGATETAPFFMSVTPQTSRSGHVGLEHHHHHH,failed
8,MKHFDYSRGLKAPYSLQVIKSPKGKIVWYFAQPLSLAYLVMLFLGIVLTGIFWKFVPLPLIFGINLNLMIMLYFPNKVARWYTETEFEGKTGLAFLKDGFVYVKNYVLDNRSIISFERVKEIEEFSFKR,failed
9,MKHMKTFVIIGLSNLGIHLLEDLSRLDCQIIIIDTSKELIEEYDVISTESFVVEQFTKNALKRIIPVDTDAVVIDFDDDLGKSALVTHYCNLLGLKEICVKTENRDDAEILKTLGATKIIFPSKDAARRLTPLLVSPNLSTYNIIGYDIIVAETVIPKEYVGKTLFEADLRRECGITVIAVRNLSNSRYEFVDGDYFFLKDDKIVICGKPDSIENFTNNKDLIKDLISGSKEDENLNKDAEKKSRFLGIFNFMKIFQKDRKDN,failed
10,MKHSLSIIFILIAAMMWGTTGTAQVFAPAEAHPIIIGASRLAVGGLALFIFVMAQRKFQLRGWPVLPTFIAALSMAAYQPFFFSAVSITGVAVGTVVAIGSAPIIAGLLDWVIQRKPPGPTWGIATILAIAGCLLLTLPGEEVTVSPVGFLLAIGAGLSFAVYTAASKKLLQQQPSEAVVAVVFSLSALFLVPLFFLYDLSWLTEFRGIIVVLHLGIVATAIAYLLFTRGLTGVASSTAVTLALAEPLTAALLGVFLVGEALSFIAWGGVLLLLLGLAVLTGFTGARTPSTRFMRNKKDKVNVE,failed
11,MKHVGDDVVAIISQDGKVIREIPLTGHKGNEQFTIKGKGAQYNLMEVDGERIRIKEDNSPDQVGVKMGWKSKAGDTIVCLPHKVFVEILEHHHHHH,not failed
12,MKIAALYDIHGNYPALKEVLKQVKKLSPDLVVLGGDLIAGPMPLETLSLLKHVSTTFKTVGIMGNNDQDIVDIYAKKRVGLSRKATEQLTWIANQLSYKQVSFLRNLLPSISIGNYFFCHAVKNDNTTVFSPQQNKAYIETLFKGVQESYIICGHTHIQFELSLPNKKIINAGSIGMPFSNQFGAQWLWLDDNRIEYKRTIFNQQAAIQLISQTEYPFKNEFLEHHHHHH,failed
13,MKIAIFRTSGVIAPFVIDGYITGFREAGHEVWGIDLTTEGLDFTKLRSFQPDFVLAYGYNGFCKSPNGYALRELGIPLVSLHYDCPYLARNDGLSDEINNFPEYYYEFVWDDSFLELLRNDGTENCDHILLATDPTWFHPIALDSPCIESSVCFVGGVSAHVEQNCVGIELVDKFIDEVIYSKLHNMEVPTFEICKQFFSTPEYRAVHQVYTTEPASFWQMIYYKIHGKGSTVMRKYILDSIEGVDLHIYGGGNGWDKPNAIFHEKVPYGTELSKAFQQYALNLNISSLQLEKAINNRPFDAYASKAFMLNDYRDDMIRAFPAHWEEITFRNLDEFAEKGEYFLTHAQERRELVADLYDHTLRHHTYRHRADQIVEKLAAINFLNRPQQPKTQTSRSILAIDEDNYADYCKDLNTCPVCGGTEFNLKFSFLGHEDYKSTFDQCMDCQAVFLNPCPTDEYLTKFYNEIYYSPQHRQKMGWDPNLDTPNPNSFFLHQRRMDFVEKYVPEELKFPRGKLLDIGCSTGAFLWEASLRYWDVCGIEISDKAAEVAREKYGLAVTTGTLLESSFDDETFDVVTAWDVLEHIANPAPFLTILRRILKQGGLILLNTPNINSADAAYAGEQWRHLDAPLHPVLYDFISIRILLKKYGFQCLEVSSGDEYHGQMKIAARKA,failed
14,MKICLIDETGTGDGALSVLAARWGLEHDEDNLMALVLTPEHLELRKRDEPKLGGIFVDFVGGAMAHRRKFGGGRGEAVAKAVGIKGDYLPDVVDATAGLGRDAFVLASVGCRVRMLERNPVVAALLDDGLARGYADAEIGGWLQERLQLIHASSLTALTDITPRPQVVYLDPMFPHKQKSALVKKEMRVFQSLVGPDLDADGLLEPARLLATKRVVVKRPDYAPPLANVATPNAVVTKGHRFDIYAGTPVLEHHHHHH,not failed
15,MKIDKLFIKSIILTFLSMNLLFMILIMLGDLFVNLLNYLEKNIGLKDILYIYYLYLPKAFSDGVALSFLFAISNLIGNLSMRNEIIGLFSCGVPLTRILKPIILISIFISVVLFFFDNYLVIDTIARRDVLIKNSIGDSRSGDKTIIIRDFAREIYNIKSYDIDENTFANLMIIIKDNKDEFQTRYDINKAEWKDNKWRLYGIREFVKVGKKIKENAYDVLDGTGIIKLAPDYIRTVMLSSKALNFTKLINWISFLKAERLNYSDAFFDLLNRIFFSFRLILLSFTVGFIALALKKNIFILSLLNSIAFAVVYVISIVIFNFLADLGYLHIYIASSFTTIFFLIINFFVYRIVRK,failed
16,MKIDVVTIFPAYLDPLRQSLPGRAIASGLVDLQVHDLRRWTYDVHHSVDDSPYGGGPGMVMKAPVWGEALDEICSAETLLVVPTPAGSLFDQATAQRWSAEQHLVFACGRYEGIDQRVAEDSARRMRVEEVSIGDYVLPGGESAAVVMIEAVLRLLTGVLGNPASHQEDSFSPELDRLLEGPSYTRPPSWRGLDVPEILLSGDHARIATWRREVSLRRTRERRPDLAPPE,failed
17,MKIHLGLVVLVFAAMIAAPRSHAADSSAPRVALVIGNSKYPDADKPLSQAVSDARELADDLKRAGFDAELGEDLSGDAMRRAFDRLYQRTKPGAAALVFFSGFGIQSGRQSYLIPADAQIWTEPDVRRDGIALETVLNELNSRGASVKIALIDASRRNPFERRFRSFSAGLAPVIAPSGSLVMYAAALSAVVTDNDSARSPFVTALREEVRAAGRSAEEAFNRARTAVTRASRGEQVPWISSSLAEDFVFTPGAKADKPAVAEPAKQPAAAAPAPAESAKPPTAPAETKPPQAAEAKPSTSRDDDKLVLALASDPTVKSLTAQIADKPSDGNAYYRRGQVYASKGAYRSAIKDFDEAIRLNGKDVEAYNNRCWVRTVIGELEPALADCDQALQLRSNFVDALDSRGLLHLKSGRDKAAIADFDAALKVNPRLTSSLYGRGLARKRIGLASEGEIDLTTAKKLDPNIGKEFAGYGVP,failed
18,MKIIVKTLKGIRFEIEVKPNDSVAEVKKNIETVMGASEYPAAQQILIHKREKLRDETTMEANKVFDKSVIAIIITKGCLEEMEKQNPPLFQMIRHNSAGFVPVLNKESFERDNELAQPEEDLLQLQVTAVDDEAINRVLFYS,failed
19,MKIKATIERVPGGMMIIPLFLGAALNTFAPGTAEFFGGFTGALITGTLPILGVFIFCVGATIDFRSSGYIARKGITLLLGKIGFAALLGVIAAQFIPDDGIQSGFFAGLSVLAIVAVMNETNGGLYLALMNHMGRKEDAGAFAFISTESGPFMTMVTFGVTGLAAFPWETLAATVIPFLLGCILGNLDHDLRDLFSKVVPAIIPFFAFSLGNTLNFGMLIQSGLLGIFIGVSVVILSGSSLFLLDRFIARGDGVAGVAASSTAGAAVAVPYALAEANASFAPVAESATAIIATSVIVTSLLTPLATVWVDKKIKQKKRRTPPPKNQMTIN,failed
20,MKILAISGSARRNSTNTAMLQAVRAVAPGEIEISIFDGVGRLPVFSPDLEGESLPEVVRNLIDVIAQSDGVIIASPEYVRSIPGGLKNAIDWLVSGDDIVHKPIALLHASHRGDDMLAGLRTVLATITDRFAGDIFLRLPLMKLEPADVLKAVEAAENRSRVQAYLQAFSAYCMADSKTA,failed
21,MKILLIGASGTLGSAVKERLEKKAEVITAGRHSGDVTVDITNIDSIKKMYEQVGKVDAIVSATGSATFSPLTELTPEKNAVTISSKLGGQINLVLLGIDSLNDKGSFTLTTGIMMEDPIVQGASAAMANGAVTAFAKSAAIEMPRGIRINTVSPNVLEESWDKLEPFFEGFLPVPAAKVARAFEKSVFGAQTGESYQVY,not failed
22,MKILLKSLVISASLCSPFVLANSEAHSDYLKGTAYLNQDNYKEAITWLTSAANNGSIEAQNKIGTIYAKGIGTEANTQLATQYFLKAAANQSSMAYYNLGKIYESEEKYSTSIDWYNKAIEENNSNAMNNLADLYLHGKGLVQNTHQAELLYIQAAELGNATAMRNLGFLYTNNKEVKQDMSKAYFWFNLAAEKDFPDADKYRDYTGKKLSKSKRIKVQNEALEWLEQHNS,failed
